Experimental findings from US20220125947A1 are described below.

Sequences and labels used below:
B1: VG9B88 (antibody, human IgG1, kappa, V domains shown)
VH: EVQLVESGGGLVKPGGSLRLSCAVSGFTFSSYTMNWVRQAPGKGLEWVSSISTSSSYIDYADSVKGRFTISRDNAKKSLYLQMNSLRAEDTAVYYCARDGDMVAPIKGSFDYWGQGTLVTVSS
VL: EIVLTQSPLSLPVTPGEPASISCRSSQSLLNSDDGNTYLDWYLQKPGQSPQLLIYTLSYRASGVPDRFSGSGSGTDFTLKISRVEAEDVGVYYCMQRIEFPITFGQGTRLEIKR
B2: VG9B58 (antibody, human IgG1, kappa, V domains shown)
VH: QVQLQESGPGLVKPSETLSLTCTVSGGSIKSSYWTWIRQPPGKGLEWIGYMFYLGSTNYNPSLKSRVTMSIDTSRNQFSLKLSSVTAADTAVYYCSRERPVLDAFDIWGQGTMVTVSS
VL: DIQMTQSPSAMSASVGDRVTITCRASQDITNYLAWFQQKPGKVPKRLIYAASSLQGGVPSRFSGSGSGTEFTLTISSLQPEDFSTYYCLQHDTYPYTFGQGTKVDIKR
B3: VG9B98 (antibody, human IgG1, kappa, V domains shown)
VH: EVQLVQSGGDLVKSGGSLRLSCAASGFTFSSYSMYWVRQAPGKGLEWVSSIGSSSTYIFYADSVKGRFTISRDNAMTSLYLQMNRLGAEDSAVYYCARDGELGPFEYWGQGTLVTVSS
VL: EIVLTQSPGTLSLSPGERATLSCRASQSVSTSYLAWFQQKPGQAPRLLIFGTSSRATGIPDRFSGSGSGTDFTLTISRLEPEDFAVYHCLQYGRSPLTFGGGTKVDIKR
B4: VG9B384 (antibody, human IgG1, lambda, V domains shown)
VH: QVQLQESGPALVKPTQTLTLTCTFSGFSLSSSGMCVSWIRQPPGKALEWLTLIDWFDDKYYSTSLKTRLTISKDTSKNQVVLTMTNMDPVDTATYYCARIRGTGAYYYGLDVWGQGTMVTVSS
VL: SYELMQPPSVSVSPGQTASITCSGNELGDKYASWYQQQPGQSPVLVIYQDNKRPSGIPERFSGSNSGNTATLTISGTQAMDEADYYCQAWDSSKVVFGGGTKLTVLG
B5: VG9B143 (antibody, human IgG1, lambda, V domains shown)
VH: EVQLVESGGGLVQPGGSLRLSCAASGFTFSTYGMNWVRQAPGKGLEWISYISTSSYTIYYSDSVKGRFTVSRDNAKNSLYLQMNSLRDEDTAVYYCAREGDWWYFDLWGRGTTVTVSS
VL: QSALTQPASVSGSPGQSITISCTGTSSDVGGYNYVSWYQQHPGKAPKLMIYEVSNRPSGVSYRFSGSKSGNTASLTISGLQAEDEADYYCSSYTSSSTLVFGGGTKLTVLG
B6: VG9B430 (antibody, human IgG1, kappa, V domains shown)
VH: EVQLLESGGGLVKPGGSLRLSCSASGFTFSSYDMNWVRQAPGKGLEWVSSISSSSSYIYYADSVKGRFTISRDNAKNSLYLQMNSLRAEDTAVYHCARDVGVTTDYYYYGMDVWGQGTMVTVSS
VL: EIVLTQSPGTLSLSPGDRATLSCRASQSVASSYLAWYQQKPGQSPRLLIYGASSRATGIPDRFSGSGSGTDFTLTISRLEPEDFAVYYCQQYGSSPPYTFGQGTKLEIKR
B7: VG9B73 (antibody, human IgG1, kappa, V domains shown)
VH: EVQLVQSGGGLVKPGGSLRLSCAASGFTFSNYDMNWVRQAPGKGLEWVSSISSSSSYIYYADSVKGRFTISRDNARNSLFLQMSSLRAEDTAVYYCAREIGVTGTTYYQDYGMDVWGQGTTVTVSS
VL: B6 VL with L4M, D17E, V29F, A30S, S32N, S44A, V86L, Y98F, L106V
B8: VG9B472 (antibody, human IgG1, kappa, V domains shown)
VH: QVQLVESGGGLVKPGGSLRLSCAASGFTFSHYDMNWVRQAPGKGLEWVSSISSSSSYIFYADSVKGRFTISRDNAKNSLLLQMNSLRAEDTAVYHCARDRGVGDTSDYYSFGLDVWGQGTTVTVSS
VL: EIVLTQSPSSLSASVGDRVTITCRASQGIATYLAWYQQKPGKVPNLLIYAASTLQSGVPSRFSGSGSGTDFTLTISSLQPEDVATYYCQKYNSAPPWTFGQGTKVEIKR
B9: VG9B195 (antibody, human IgG1, lambda, V domains shown)
VH: EVQLVESGGGLVKPGGSLRLSCAASGFTFSPYTMNWVRQAPGKGLEWVSSISSSSSYMYYADSVKGRFTISRDNAKNSLYLQMNSLRAEDTAVYYCARDGDLVGPTYYFDYWGQGTLVTVSS
VL: B4 VL with N25D, E26K, S33C, Q38K, D50H, N68K, S93T, K94T
B10: VG9B157 (antibody, human IgG1, lambda, V domains shown)
VH: EVQLLESGGGLVKPGASLKLSCAASGFTFSNHGMSWVRQTSDKRLEWVASITRGGDTTYYPDNVKGRFTISRENAKNTLYLQMSSLKSDDTALYYCTRGPLTVGYAMDYWGQGTTVTVSS
VL: SSELTQDPAVSVALGQTVRITCQGDSLRSYYATWYQQKPGQAPILVIYGENNRPSGIPDRFSGSRSGNTASLTITGAQAEDEADYYCNSRDTGDHHLVFGGGTKLTVLG
B11: VG9B68 (antibody, human IgG1, kappa, V domains shown)
VH: EVQLVESGAEVKKPGSSVKVSCKASGGTFSTYAISWVRQAPGQGLEWMGGIIPIFGTATYAQRFQDRVMITADKSTTTAYMELSSLRSEDTAVFYCARGVGWGSDYYYGLDVWGQGTMVTVSS
VL: EIVMTQSPLSSPVTLGQPASISCRSSQSLVHSDGNTYLSWLQQRPGQSPRLLIYKISNRFSGVPDRFSGSGAGTDFTLRITRVEPEDVGVYYCIQATHHPLTFGGGTRLEIKR

Positions count from the first letter of the chain named.

Sequence of Vg9/Vd1 T cell receptor on SKW3 cells (AG000003287; CLI000001326 (C3821A)) (Q99603 21-122, stated change not applied): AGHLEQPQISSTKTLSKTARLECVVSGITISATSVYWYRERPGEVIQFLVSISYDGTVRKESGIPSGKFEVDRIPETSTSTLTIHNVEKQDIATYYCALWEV
Sequence of Vg9/Vd2 T cell receptor on SKW3_4 cells (AG000003284; CLI000001324 (C3819A)) (Q99603 21-122, chain 1 of 2): as the sequence (Q99603 21-122, stated change not applied) above
Sequence of Vg9/Vd2 T cell receptor on SKW3_4 cells (AG000003284; CLI000001324 (C3819A)) (A0JD36 20-115, chain 2 of 2, further chain): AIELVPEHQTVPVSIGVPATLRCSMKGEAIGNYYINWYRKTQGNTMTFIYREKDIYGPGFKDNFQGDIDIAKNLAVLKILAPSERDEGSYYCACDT

The first experiment concerns the target Vg5/Vd2 T cell receptor on SKW3 cells (UniProt A0JD36). The experiment is described as follows: flow cytometry, dose-response binding at 37 C on SKW3 cells expressing Vg5/Vd2.
On to B1, for which the Max. Activity (fold over background) stood at 18.8.
Consider B2, for which the Max. Activity (fold over background) stood at 1.49.
Take B3: the Max. Activity (fold over background) was determined as 2.47.
With B4, the Max. Activity (fold over background) stood at 18.7.
For the molecule B5, the Max. Activity (fold over background) came to 1.07.
Regarding B6, the Max. Activity (fold over background) came to 1.49.
As for B7, the Max. Activity (fold over background) amounted to 1.79.
On to B8, for which the Max. Activity (fold over background) amounted to 2.22.

Another experiment deals with Vg9/Vd1 T cell receptor on SKW3 cells (UniProt Q99603). As to the kind of experiment: flow cytometry, dose-response binding at 37 C on SKW3 cells expressing Vg9/Vd1.
Sequence of Vg9/Vd1 T cell receptor on SKW3 cells (Q99603 21-122): as the sequence (Q99603 21-122, stated change not applied) above
Consider B1, for which the Max. Activity (fold over background) was 346.
On the same count and under the same terms, then B2, with 350; and B3, with 344.
As to B4, the Max. Activity (fold over background) turned out to be 290.
On to B5, for which the Max. Activity (fold over background) is 241.
Regarding B6, the Max. Activity (fold over background) is 325.
For B7, the Max. Activity (fold over background) is 317.
As to B8, the Max. Activity (fold over background) was determined as 328.

The target in the next experiment is Vg5/Vd2 T cell receptor on SKW3 cells (AG000003285; CLI000001325 (C3820A)) (UniProt A0JD36). The experiment is described as follows: flow cytometry, DRC binding at 37°C on SKW3 cells expressing Vg5/Vd2.
Sequence of Vg5/Vd2 T cell receptor on SKW3 cells (AG000003285; CLI000001325 (C3820A)) (A0JD36 20-115, stated change not applied): as the sequence (A0JD36 20-115, chain 2 of 2, further chain) above
B9: the Max. Activity (fold over background) is 10.3.

A further experiment addresses Vg9/Vd2 T cell receptor on SKW3_4 cells (AG000003284; CLI000001324 (C3819A)) (UniProt Q99603). As to the kind of experiment: flow cytometry, DRC binding at 37°C on SKW3_4 cells expressing Vg9/Vd2.
In the case of B9, the Max. Activity (fold over background) was determined as 119.

In the next experiment the target is Vg9/Vd1 T cell receptor on SKW3 cells (UniProt Q99603). As to the kind of experiment: flow cytometry, DRC binding 37 C, SKW3 cells expressing Vg9/Vd1.
B10: the Max. Activity (fold over background) was 0.96.
Same read-out and setting: then B11, with 2.08.

A further experiment deals with Vg9/Vd2 T cell receptor on SKW3_4 cells (UniProt Q99603). As to the kind of experiment: flow cytometry, dose-response binding at 37 C on SKW3_4 cells expressing Vg9/Vd2.
Sequence of Vg9/Vd2 T cell receptor on SKW3_4 cells (Q99603 21-122, chain 1 of 2): as the sequence (Q99603 21-122, stated change not applied) above
Sequence of Vg9/Vd2 T cell receptor on SKW3_4 cells (A0JD36 20-115, chain 2 of 2, further chain): as the sequence (A0JD36 20-115, chain 2 of 2, further chain) above
For the molecule B1, the Max. Activity (fold over background) was 154.
For B2, the Max. Activity (fold over background) came out at 160.
Regarding B3, the Max. Activity (fold over background) amounted to 154.
On to B4, for which the Max. Activity (fold over background) stood at 121.
Turning to B5, the Max. Activity (fold over background) was found to be 97.3.
With B6, the Max. Activity (fold over background) came to 143.
For the molecule B7, the Max. Activity (fold over background) amounted to 118.
For B8, the Max. Activity (fold over background) worked out at 171.

For a further experiment, the target named is Vg5/Vd2 T cell receptor on SKW3 cells (UniProt A0JD36). The experiment is described as follows: flow cytometry, DRC binding 37 C, SKW3 cells expressing Vg5/Vd2.
Sequence of Vg5/Vd2 T cell receptor on SKW3 cells (A0JD36 20-115): as the sequence (A0JD36 20-115, chain 2 of 2, further chain) above
For B10, the Max. Activity (fold over background) turned out to be 11.7.
The same measure, in the same setting: then B11, with 207.

Another experiment concerns the target Vg9/Vd1 T cell receptor on SKW3 cells (AG000003287; CLI000001326 (C3821A)) (UniProt Q99603). The experiment is described as follows: flow cytometry, DRC binding at 37°C on SKW3 cells expressing Vg9/Vd1.
Regarding B9, the Max. Activity (fold over background) was found to be 300.

The next experiment deals with Vg9/Vd2 T cell receptor on SKW3_4 cells (UniProt Q99603). The experiment is described as follows: flow cytometry, DRC binding 37 C, SKW3_4 cells expressing Vg9/Vd2.
On to B10, for which the Max. Activity (fold over background) worked out at 11.
With B11, the Max. Activity (fold over background) was 124.
